We go through five molecules from patent US20040138156A1, “Therapeutic regulation of deoxyribonuclease-1-like-3 activity” (priority 2002, published 2004).

The test system of one data set is free DNA. The data set is described as follows: Radial diffusion assay (RDA) of nuclease activity against free DNA in conditioned media. The format is biochemical. Conditions: for RDA nuclease activity of conditioned media (in words): media conditioned by transfected HeLa cells. As to the method: (§1) Transfection Reagents and Resistance Assays. Lipofection of respective pcDNA3.1-D1 or -D3 ([…] purified with Promega Wizard Plus DNA system) was performed independently into 1-2 million HeLa cells, which produce a low background of secreted nuclease activity, when grown in DMEM with 10% FCS (LifeTech) in 6 well culture plates (Becton-Dickinson). […] Media of the transfected cells were conditioned for 36-48 hours and served as source of the respective enzymes. Nuclease activity in conditioned supernatant was measured by RDAs, zymograms and by testing activity against supercoiled pBluescript (Stratagene).
Nuclease Assays. Nuclease activity against “naked” or free DNA in CM was quantified by densitometry of RDAs. For assays of media by murine cells, RDAs were performed using conditioned media, after 36 hour incubation of equal numbers of target cell population. Each conditioned media was sampled in triplicate. RDAs for all four mice were performed on a single dish. For RDAs, 2-5 ul of conditioned supernatant was dotted on 100 mm dishes containing 2% agarose, 250 ug/ml DNA, 0.001% EtBr, 0.5% filtered milk, 10 mM Ca^+2/MgCl2; and 12.5 ug/ml kanamycin. Multiple observations were generated for every sample obtained. After 24 hours of 37° incubation, plates are photographed under UV transillumination; and scanned photos were analyzed with NIH image. For RDAs, the activity was quantified as the product of mean density and area (traced on image) of zones of clearing. For observations of serum/urine, 2-5 ul of serum were dotted on agarose plates.
(§2) Zymograms are in-gel renaturation assays performed by SDS-PAGE through a gel impregnated with 200 µg/ml DNA and ethidium bromide, eluting away SDS with repeated washes in 25 mM Tris-HCl pH 7.5, then incubating for 12-16 hours at 37° C. in 25 mM Tris-HCl pH 7.5 with 10 mM Ca^+2/Mg^+2 buffer. Activity is measured as dark “bands” of DNA digestion (Rosenthal et al., (1977) Anal. Biochem. 80, 76-90) and quantified using scanned images using NIH Image. Photographed RDA results were scanned 600 dpi Tiff images, and activity was measured as pixel area times density of traced zones of clearing (n=3 for each zone). Student's T-test was used to compare paired results. Nuclease activity ratios were obtained by comparing intra-plate results.

A further data set concerns HeLa cells. Briefly: BT assay: liposomal N1-eGFP transfection of HeLa cells in DNASE-conditioned media, GFP immunoblot. To be noted: for BT activity / GFP expression or transfection efficiency in cells exposed to undiluted conditioned media: FuGENE-6, anti-GFP immunoblot. The format is cell-based. As for the experimental part:
In the main assay, an eukaryotic marker such as green fluorescent protein (GFP) expression plasmid complexed with a lipid reagent is transfected into HeLa cells incubated in control media, D1L3-conditioned media, or D1-conditioned media (FIG. 4). The assay is not limited to the use of GFP as a marker, but could use any of many expressed biomarkers encoded by nucleotides that can be assayed either immunochemistry, fluorescent detection, or enzymatic detectection, and these include but are not circumscribed to luciferase, chloramphenicol acetyl-transferase, antibiotic or chemical resistance genes, Beta-galactosidase, FLAG-, myc-hemaglutinnin-, or other epitope tagged molecules, as well as other markers of gene or nucleotide transduction. The endpoint of the assay is the detection of a synthesized protein, but could easily have been the detection of a transcribed gene product, since the assay ultimately measures the ability of D1L3 added the media/milieu overlaying the cells to block the ultimate association of an expressible plasmid with the transcriptional machinery.
as §1
To test for the ability of the nucleases to block transfection, the media in individual wells of naive HeLa cells were replaced with conditioned media, and cells transfected with […] of N1-eGFP plasmid (Clontech) using various transfection reagents (FIG. 11) and their respective protocols. GFP expression by immunoblot directly correlated with transfection efficiency in present experiments. Thus, transfection efficiency was compared by densitometric analysis of GFP immunoblots.
GFP expression was also examined by fluorescent microscopy using a FITC filter. For microscopy, cells were fixed for 5 minutes in 4% paraformaldehyde dissolved into 1% PBS.
Antibody Reagents and Immunoblotting. After 24-36 hours, cells transfected with N1-eGFP were lysed in SDS-buffer and immunoblotted for expression with anti-GFP at 1:5000 dilution (Clontech). To confirm nearly equal protein loading per lane, anti-β-actin monoclonal antibody at 1:7,000 dilution (Sigma) were prepared. For immunoblots, […] protein was eletrophoretically separated by 12% SDS-PAGE gel, followed by electrotransfer to Immobilon-P membranes (Millipore) for expression studies. Immunoblotting was performed using ECL detection (Amersham).
Transfection efficiency was compared, wherever possible, by pixel densitometry of the scanned images using Scion Image 4.02 software.
A general note: Immunoblotting shows a protein as a band on a membrane.

The subject of the next data set is DNA. The data set is described as follows: DNA-SDS zymogram of nuclease activity. The data set is classed as biochemical. As for the experimental part:
as §2
Prokaryotic Expression and GST Purification. Human D1L3-GST expression was performed by growing transformed BL21 Cells (Stratagene) at log phase were induced in 50 mg/ml IPTG for 5-7 hours at 32°. Bacterial pellets were lysed in 1×SDS-PAGE buffer and loaded on SDS-12% PAGE.

Positions count from the first letter of the chain named. Names may count otherwise. “Also recorded” adds a separate entry of the source. Like-named read-outs stand apart in the source and are kept apart here.

B1: 89I: Murine D1L3 variant of NZ and MRL strains, isoleucine for threonine at residue 89 (protein)
chain: LRLCSFNVRSFGASKKENHEAMDIIVKIIKRCDLILLMEIKDSSNNICPMLMEKLNGNSRRSTIYNYVISSRLGRNTYKEQYAFVYKEKLVSVKTKYHYHDYQDGDTDVFSREPFVVWFHSPFTAVKDFVIVPLHTTPETSVKEIDELVDVYTDVRSQWKTENFIFMGDFNAGCSYVPKKAWQNIRLRTDPKFVWLIGDQEDTTVKKSTSCAYDRIVLCGQEIVNSVVPRSSGVFDFQKAYDLSEEEALDVSDHFPVEFKLQSSRAFTNNRKSVSLKKRKKGNRS
On to B1, for which the “RDA-nuclease activity relative to the 89T enzyme” value in the data set with free DNA (in vitro) is reported as “about half”. In addition, the “defect in BT activity” value with HeLa cells (normalized to immunoblotted D3 protein levels, versus 89T, n=6) is on record as around 8 fold. For the same molecule, the “GFP transfection in ten-fold diluted conditioned media” value with HeLa cells (ten-fold (five and ten fold) dilution of conditioned media) is listed as “liposomal gene transfection is possible; also recorded: shows transfection”. Also, the “BT activity / GFP expression or transfection efficiency in cells exposed to undiluted conditioned media” value in the data set with HeLa cells is “saturated BT activity”. For the same molecule, the “zymogram nuclease activity relative to 89T-transfected cells” value in the data set with DNA (HeLa-expressed, normalized to immunoblotted D1L3 levels, n=16) came to 44%. Also, the “decreased zymogram activity relative to protein levels” value with DNA (versus 89T, GST fusions and HeLa-expressed enzymes) is around 50%.

B2: N196K-D3: Murine D1L3 with conserved asparagine 196 changed to lysine; inactive nuclease (protein)
chain: B1 chain with I64T, N171K
Take B2: the “RDA nuclease activity of conditioned media (in words)” value (shortened to “RDA nuclease activity”) in the data set on free DNA is recorded as “Nearly no clearing; also recorded: negligible background RDA activity; also recorded: no nuclease activity above background”. The “BT activity / GFP expression or transfection efficiency in cells exposed to undiluted conditioned media” value with HeLa cells was “did not differ significantly from controls; also recorded: incapable of providing a barrier to transfection”. Besides, the “nuclease activity by zymogram (in words)” value in the data set with DNA was “no nuclease activity above background”.

B3: D3DCT: Murine D1L3 truncated by a stop codon at Ser-289, lacking the basic C-terminus (289-310) (protein)
chain: LRLCSFNVRSFGASKKENHEAMDIIVKIIKRCDLILLMEIKDSSNNICPMLMEKLNGNSRRSTTYNYVISSRLGRNTYKEQYAFVYKEKLVSVKTKYHYHDYQDGDTDVFSREPFVVWFHSPFTAVKDFVIVPLHTTPETSVKEIDELVDVYTDVRSQWKTENFIFMGDFNAGCSYVPKKAWQNIRLRTDPKFVWLIGDQEDTTVKKSTSCAYDRIVLCGQEIVNSVVPRSSGVFDFQKAYDLSEEEALDVSDHFPVEFKLQS
Consider B3, for which the “RDA nuclease activity” value in the data set with free DNA is listed as “greater RDA activity than D3”; in the data set on free DNA (listed as D3 pCT) it was “slightly increased nuclease activity”. Further, the “BT activity / GFP expression or transfection efficiency in cells exposed to undiluted conditioned media” value in the data set on HeLa cells is on record as “did not differ significantly from controls; also recorded: no significant decrease”; in the data set with HeLa cells (listed as D3 ρCT), “unaffected”.

B4: Y261 C: Human DNASE1L3 with Tyr>Cys at aa 261, HA-tagged, expressed in HeLa (protein, UniProt Q13609 21-305, looked up, variant Y261C)
Deoxyribonuclease gamma: MRICSFNVRSFGESKQEDKNAMDVIVKVIKRCDIILVMEIKDSNNRICPILMEKLNRNSRRGITYNYVISSRLGRNTYKEQYAFLYKEKLVSVKRSYHYHDYQDGDADVFSREPFVVWFQSPHTAVKDFVIIPLHTTPETSVKEIDELVEVYTDVKHRWKAENFIFMGDFNAGCSYVPKKAWKNIRLRTDPRFVWLIGDQEDTTVKKSTNCAYDRIVLRGQEIVSSVVPKSNSVFDFQKACKLTEEEALDVSDHFPVEFKLQSSRAFTNSKKSVTLRKKTKSKRS
modifications: HA tag
notes: Human DNASE1L3 with Tyr>Cys at aa 261, HA-tagged, expressed in HeLa
With B4, the “RDA nuclease activity” value is “complete loss of function” with free DNA and “only faint, if any, activity” in the data set on free DNA (listed as 261 C). For the same molecule, the “BT activity / GFP expression or transfection efficiency in cells exposed to undiluted conditioned media” value is “complete loss of function” in the data set with HeLa cells and “absence of barrier activity” in the data set on HeLa cells (listed as 261 C). Besides, the figures for the “nuclease activity by zymogram (in words)” value with DNA and in the data set on DNA (listed as 261 C) were “complete loss of function” and “no activity”, respectively.

B5: N191K: Human D1L3 with N191K mutation, expressed as GST fusion in E. coli (protein)
chain: B4 Deoxyribonuclease gamma with N171K, C241Y
In the case of B5, the “nuclease activity by zymogram (in words)” value in the data set with DNA is recorded as “no detectable nuclease activity”.
